± gives the standard deviation of the averaged measurements.
Test system: ATP
Experiment: switch fluorescence ratio, 500 uM ATP over buffer (Cy3 cluster intensity, sum of 5 cycles each) (fold (ratio)); higher = stronger signal-on switching upon ATP binding; sequences stand for … in TCGTCGGCAGCGTCAGATGTGTATAAGAGACAGTTTTTTTTTTTTTTTTTTTTTTTTT…TC
Details: aptamer strand: ATP DNA aptamer (quencher-CACCTGGGGGAGTATTGCGGAGGAAGG + anchor), 100 nM annealed; ATP concentration: 500 uM
Procedure, shortened: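 Exposure to 500 uM ATP lasted 15 min at 22 °C before imaging, and a selection-buffer image was taken beforehand, for Cy3-labelled switching-strand clusters on a modified Illumina MiSeq flow-cell annealed to 100 nM quencher-labelled ATP aptamer. Five buffer/ATP cycles were run with NaOH stripping and re-annealing between them. The fluorescence ratio per cluster is summed target-cycle over summed buffer-cycle Cy3 intensity, averaged per switch-domain sequence. Clusters outside 100-1000 RFU were excluded.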

Sequence	switch fluorescence ratio
GGCATATGCG	1.013 ± 0.0068
GGGGTGAAGG	1.01 ± 0.025
TTTTCTGGGG	0.994 ± 0.032
TTGATGTGGG	0.975 ± 0.029
TAAGTTAGAG	0.97 ± 0.024
GGGGCTCATG	0.99 ± 0.014
GGTTAGGAAA	0.998 ± 0.021
GCAGGTTTTG	0.987 ± 0.04
TTTGTAAGGG	0.986 ± 0.021
GGGTTATTGT	1 ± 0.016
CATCAGGGTT	0.974 ± 0.013
TGCGGTTTGA	1.01 ± 0.012
GGGAGTTCTA	0.991 ± 0.023
CAGAATTGAG	0.995 ± 0.0026
TGGTTGGTGG	1.05 ± 0.09
TGTAGTACTG	1.02 ± 0.043
TGCGGGGGTA	0.999 ± 0.019
CGGGTTAGAG	0.968 ± 0.019
ATCGGTTTCT	1.002 ± 0.0083
TTATAACCTG	1.02 ± 0.037
TCGAGTTTGT	1.01 ± 0.022
TCGTTCGCGG	1.12 ± 0.015
GGAGAGGAAT	1.01 ± 0.044
TTGGTTGACG	0.963 ± 0.041
TAAAGGTTGC	0.984 ± 0.02
GGATTAGG	0.99 ± 0.025

Sequence	switch fluorescence ratio
AACGACGACG	1.16 ± 0.05
GGCTAAGGGT	0.995 ± 0.013
AGTCGATGTG	0.966 ± 0.025
TTCGTCTACA	0.98 ± 0.021
CGGGTAAGCC	0.961 ± 0.027
GGCTGGGTGG	1.01 ± 0.053
TACGGAGTCT	0.9814 ± 0.0075
GCACGGGGGA	0.9884 ± 0.0077
TAAGGTGTTT	1.08 ± 0.076
CGGTAGATGT	1 ± 0.034
ATAAGCGGGG	1.01 ± 0.04
TATTTTAGTT	1.02 ± 0.023
CTATTTTGGC	0.966 ± 0.038
CTCTGTTTAG	1.48 ± 0.53
GGGTCGGGTG	1.03 ± 0.042
TGGGGATTCC	1.01 ± 0.016
CTGTGCAGTC	1.26 ± 0.075
AAATCATATG	1.08 ± 0.087
TTAGGTTCTA	1.08 ± 0.12
CTTGTTCATG	1 ± 0.017
AGCTTTGGTA	1.016 ± 0.0026
AAATTAGGGG	0.9908 ± 0.0085
GTGGAATGGT	0.986 ± 0.024
TTCTGCTGCT	1.02 ± 0.02
TTACAATCAA	0.999 ± 0.047
GGGGGAAGAA	1 ± 0.028

Sequence	switch fluorescence ratio
CGGTAATTGG	1.01 ± 0.02
GAAAAGGGGA	1.27 ± 0.48
GGGGGCCCGG	1.03 ± 0.045
TTCGACTCCT	1.09 ± 0.087
ATAATGTGCA	1.024 ± 0.0071
ATATGTAGAG	1.05 ± 0.046
GAGATTCGCT	0.988 ± 0.014
GTTCCGGGGT	1.05 ± 0.05
GCTAGATGGG	1.01 ± 0.034
GCGGCAGTCT	1.03 ± 0.012
TTCGGGTGTT	0.9932 ± 0.0029
CAACAACGCG	0.992 ± 0.02
GGATTGCAAG	0.998 ± 0.013
TAGAGTATCT	0.999 ± 0.027
GGCCTCCGGT	1.09 ± 0.018
TGGTGTGATG	1.007 ± 0.0026
GGTTAATGTT	0.998 ± 0.026
TTGGGGTGGA	0.99 ± 0.018
TTTGGGCAGC	1.083 ± 0.0087
TAAATGTGGG	1 ± 0.069
GAATTTACCT	1.2 ± 0.039
AAGTTATGGG	1 ± 0.023
CACGGGGCTT	1.02 ± 0.021
GTATTTAGGG	1.03 ± 0.039
TCAGGGGTGT	1.08 ± 0.024
CTGGGTAACG	0.996 ± 0.034

Sequence	switch fluorescence ratio
TATGGTGC	1.06 ± 0.015
AACGGGGACT	1.05 ± 0.063
TACTCTGTGT	1.01 ± 0.014
GACGTGCAGG	1.07 ± 0.11
GAAATTAGTG	1.01 ± 0.039
GGGCCTGCGC	1 ± 0.015
ATTGTTATCG	1.02 ± 0.14
AATTTTATTT	1.03 ± 0.062
ATTTGGCGCT	0.994 ± 0.059
TTAACTATGG	1.016 ± 0.0066
TTTAGAATAT	0.9885 ± 0.0018
TGGTTACATC	1.04 ± 0.015
CTGGGGAGTG	0.977 ± 0.029
GATGGGGATA	1.02 ± 0.013
GACTGAAAAA	0.981 ± 0.14
GTGAAGGTCG	0.927 ± 0.022
TTAAACCTAA	1.02 ± 0.052
TTTCTAAATC	0.979 ± 0.01
AAGTGGTAAG	0.996 ± 0.034
CACGCCTTAT	1.034 ± 0.0043
TACGATTTAT	1.018 ± 0.0096
TCGCGCATTG	1.14 ± 0.13
CGTTAAATGT	0.998 ± 0.022
ATGATTCAGC	1.03 ± 0.083
CAATCCTTTT	1.01 ± 0.018
AAGTGTGCCT	0.983 ± 0.01

Sequence	switch fluorescence ratio
AGGTTAAAAC	1.2 ± 0.19
GCCGAAGTTA	1.12 ± 0.042
CATATTGCTT	0.993 ± 0.028
CAGTCTTTTA	0.957 ± 0.035
TTAAGAACG	1.002 ± 0.0087
TCGTCGGGGA	1.01 ± 0.014
GGGGAACGGG	1 ± 0.027
TCAGAAGGGG	0.995 ± 0.0085
TTAAGGTAGC	1.03 ± 0.013
TACGTATAAT	1.15 ± 0.015
CCTAAAAGGG	1 ± 0.032
CGAAGACTGC	1.19 ± 0.12
GGGCTCTTGC	0.98 ± 0.068
TGTTTCATTG	0.976 ± 0.018
CATACAGGGG	1.44 ± 0.067
ATTGTAACAA	1.037 ± 0.0089
CTTTAATGCC	0.999 ± 0.021
GTTGGGGTGG	1.04 ± 0.12
GGGGAAACCT	2.21 ± 0.77
TCAGCCAGC	1.06 ± 0.012
GAGTTAATGC	1.01 ± 0.049
TGGTGTGTCA	1.005 ± 0.0092
ACTTGTTGCG	0.989 ± 0.056
TCAATGTTGG	0.988 ± 0.025
GAGGGCGGAC	1.05 ± 0.19
TATTAGGTTT	0.991 ± 0.018

Sequence	switch fluorescence ratio
GGTTTTTTGA	1.01 ± 0.038
AATTAGAAGC	0.9962 ± 0.0075
GCGGTACACG	1.01 ± 0.027
AAGTTGTTGA	1 ± 0.028
AATTTCACCA	0.999 ± 0.013
TTGGAGGGGT	1.09 ± 0.15
CGATGGGGGT	1 ± 0.026
ATGGCGAATT	0.995 ± 0.073
CCGGTTGGTG	1 ± 0.036
TTAAGGTTTT	1 ± 0.03
TGCAGGGCAG	0.98885 ± 0.00071
TTTTGGCATG	1.03 ± 0.034
TTTATCTTTG	1 ± 0.027
GTCAAACGGA	0.986 ± 0.018
AGAGAGGGAA	1 ± 0.025
GCAGTAGCTG	0.998 ± 0.011
CAGGGGTTAT	1.01 ± 0.015
ATTGATCGAT	1.02 ± 0.035
AATCGAGTCC	1.107 ± 0.011
CGTGTGTACA	0.98 ± 0.01
CCTTATAAA	1 ± 0.018
TAGGGGCTTG	1.014 ± 0.0011
TCAGGTTTCC	1.0249 ± 0.00069

Reference: the supplement of paper PMC10126150
